Experimental data taken from paper PMC10950897, “VCF1 is a p97/VCP cofactor promoting recognition of ubiquitylated p97-UFD1-NPL4 substrates” (Nature Communications, 2024).

Legend:
Ub(G76V)-GFP, U2OS cells = experiment: QIBC of Ub(G76V)-GFP after siRNA; assay type: cell-based, human; conditions: siRNA 20 nM, QIBC >10,000 cells
Description: (§1) U2OS (catalog no. HTB-96) cells were obtained from ATCC. HEK293-EBNA1-6E cells were a kind gift from Yves Durocher (National Research Council Canada, Montreal, Canada). All mammalian cell lines were cultured under standard conditions at 37 °C and 5% CO2 in DMEM (Thermo) supplemented with 10% FBS (v/v) and penicillin-streptomycin (Thermo). Recombination cloning-compatible U2OS cells were generated using the Flp-In T-Rex Core Kit (Thermo) according to the manufacturer’s instructions and maintained under selection using Blasticidin (Invivogen) and Zeocin (Thermo). To generate cell lines stably expressing GFP-VCF1, U2OS Flp-In T-Rex cells (Thermo) were co-transfected with GFP-VCF1 constructs and pOG44 (Thermo) plasmids, followed by selection with Hygromycin (Invitrogen). Single clones were carefully screened for uniform expression of ectopic GFP-VCF1 at low levels and maintained under selection with Blasticidin and Hygromycin. To induce GFP-VCF1 expression, cells were treated with Doxycycline (DOX) (0.5 µg/ml) for 16 h. U2OS cell lines stably expressing Ub(G76V)-GFP or Ub(G76V)-GFP-20AA were described previously. A U2OS cell line stably expressing Ub(G76V)-GFP-NES was generated under G418 (Invivogen) selection. […]
(§2) Mammalian cells grown on coverslips were fixed in formalin buffer (VWR) for 15 min at room temperature (RT). […] Quantitative image-based cytometry (QIBC) was performed as described. […]

[1] = tested on: NPL4, U2OS/Ub(G76V)-GFP cells; experiment: Immunoblot of siRNA knockdown efficiency; assay type: cell-based, human
Description: All siRNAs (Sigma) were used at 20 nM and transfected with Lipofectamine RNAiMAX reagent (Thermo) according to manufacturer’s instructions. The following siRNA oligonucleotides were used: Non-targeting control (CTRL): 5′-[…]-3′; VCF1(#1): 5’-[…]-3’; VCF1(#2): 5’-[…]-3’; p47: 5’-[…]-3’; NPL4: 5’-[…]-3’; FAF1: 5′-[…]-3′; p97: Dharmacon SmartPool (D-008727).
Immunoblotting was performed as previously described. Immunoprecipitation (IP) of HA-tagged proteins was performed using Anti-HA Affinity matrix (Roche) under denaturing conditions, unless otherwise stated. GFP-trap and […] Fab-trap agarose (Chromotek) were used according to manufacturer’s instructions. Cell lysis was performed using RIPA buffer (140 mM NaCl; 10 mM Tris-HCl, pH 8.0; 0.1% sodium deoxycholate; 1% Triton X-100; 0.1% SDS; 1 mM EDTA; 0.5 mM EGTA) or EBC buffer (50 mM Tris, pH 7.5; 150 mM NaCl; 1 mM EDTA; 0.5% NP-40, 1 mM DTT). IPs were washed in non-denaturing buffer (50 mM Tris-HCl, pH 7.5; 150 mM NaCl; 0.5 mM EDTA). Cell lysis and IP under partially denaturing conditions were performed using denaturing buffer (20 mM Tris-HCl, pH 7.5; 50 mM NaCl; 0.5% sodium deoxycholate; 0.5% NP-40; 0.5% SDS; 1 mM EDTA). […]

[2] = tested on: Ub(G76V)-GFP-NES, U2OS cells; experiment: Imaging of Ub(G76V)-GFP-NES after siRNA or p97 inhibitor; assay type: cell-based, human; conditions: siRNA 20 nM or p97i (NMS-873) 2 h
Description: as §1, §2

p97 ATPase = experiment: ATPase assay; assay type: biochemical, human; conditions: p97 25 nM, ATP 375 μM
Description: For ATPase assays, 1 ml of 5x assay buffer (250 mM Tris, pH 7.4; 100 mM MgCl2; 5 mM EDTA) was mixed with 3 ml water, 5 μl 0.5 M TCEP and 5 μl 10% Triton X. To 40 ul of this assay buffer, recombinant proteins were added, mixed and incubated for 30 min. Final protein concentrations were as follows: p97 (25 nM), VCF1 (range of 0, 0.025, 1, 10 and 25 nM). The reactions were started by adding 10 μl ATP (final concentration of 375 μM) to the 40 μl reactions in a 96 well plate. After 35 min at room temperature, reactions were stopped by adding 50 μl BIOMOL Green reagent (Enzo Life Sciences). Absorbance at 635 nm was measured after 4 min and the relative ATPase activity calculated. Reactions were performed in duplicates and repeated three times.

[3] = tested on: p97-UFD1-NPL4 binding to K48-Ub2-7; experiment: FLAG IP: p97-UFD1-NPL4 binding to K48-linked ubiquitin chains, purified proteins; assay type: biochemical, human; conditions: high protein amounts, mild buffer
Description: All in vitro binding experiments were performed in EBC or RIPA buffer as indicated. Recombinant Biotin-tagged K48-linked poly-ubiquitin chains (2−7) and K48-linked poly-ubiquitin chains (2−16) were purchased from R&D Systems and Enzo Life Science, respectively. Recombinant proteins were incubated with Strep-Tactin Sepharose (IBA), Glutathione agarose (Gold Biotechnology) or […] Fab-trap agarose (ChromoTek) overnight on an end-over-end rotator at 4 °C, washed six times with EBC or RIPA buffer, and resuspended in 2×Laemmli sample buffer. For p97, VCF1 or p47 pulldowns, antibodies (0.5 µg/sample) were coupled to agarose beads, incubated with recombinant proteins or cell lysates and washed with the indicated buffer. To assess p97-UFD1-NPL4 binding to ubiquitylated proteins in total cell extracts, U2OS cells were lysed in EBC buffer supplemented with protease and phosphatase inhibitors, sonicated and incubated on ice for 10 min. Lysates were cleared by centrifugation for 10 min at 16,100 × g. Cell lysate (40 µg) was added to recombinant proteins in EBC buffer, incubated overnight on the rotator with […] Fab-trap agarose (ChromoTek), and beads were washed six times.

[4] = tested on: GFP-VCF1 WT / N167A interactome, U2OS cells; experiment: GFP IP mass spectrometry, comparison of VCF1 WT and N167A interactomes (WT/N167A); assay type: binding, human; conditions: stably expressed GFP-VCF1, MS interactome
Description: U2OS (catalog no. HTB-96) cells were obtained from ATCC. HEK293-EBNA1-6E cells were a kind gift from Yves Durocher (National Research Council Canada, Montreal, Canada). All mammalian cell lines were cultured under standard conditions at 37 °C and 5% CO2 in DMEM (Thermo) supplemented with 10% FBS (v/v) and penicillin-streptomycin (Thermo). Recombination cloning-compatible U2OS cells were generated using the Flp-In T-Rex Core Kit (Thermo) according to the manufacturer’s instructions and maintained under selection using Blasticidin (Invivogen) and Zeocin (Thermo). To generate cell lines stably expressing GFP-VCF1, U2OS Flp-In T-Rex cells (Thermo) were co-transfected with GFP-VCF1 constructs and pOG44 (Thermo) plasmids, followed by selection with Hygromycin (Invitrogen). Single clones were carefully screened for uniform expression of ectopic GFP-VCF1 at low levels and maintained under selection with Blasticidin and Hygromycin. To induce GFP-VCF1 expression, cells were treated with Doxycycline (DOX) (0.5 µg/ml) for 16 h. U2OS cell lines stably expressing Ub(G76V)-GFP or Ub(G76V)-GFP-20AA were described previously. A U2OS cell line stably expressing Ub(G76V)-GFP-NES was generated under G418 (Invivogen) selection. Clones with low baseline GFP expression were visually screened for low basal GFP expression. All cell lines used in this study were regularly tested negative for mycoplasma infection and were not authenticated.
(§3) Immunoblotting was performed as previously described. Immunoprecipitation (IP) of HA-tagged proteins was performed using Anti-HA Affinity matrix (Roche) under denaturing conditions, unless otherwise stated. GFP-trap and […] Fab-trap agarose (Chromotek) were used according to manufacturer’s instructions. Cell lysis was performed using RIPA buffer (140 mM NaCl; 10 mM Tris-HCl, pH 8.0; 0.1% sodium deoxycholate; 1% Triton X-100; 0.1% SDS; 1 mM EDTA; 0.5 mM EGTA) or EBC buffer (50 mM Tris, pH 7.5; 150 mM NaCl; 1 mM EDTA; 0.5% NP-40, 1 mM DTT). IPs were washed in non-denaturing buffer (50 mM Tris-HCl, pH 7.5; 150 mM NaCl; 0.5 mM EDTA). Cell lysis and IP under partially denaturing conditions were performed using denaturing buffer (20 mM Tris-HCl, pH 7.5; 50 mM NaCl; 0.5% sodium deoxycholate; 0.5% NP-40; 0.5% SDS; 1 mM EDTA). All lysis and wash buffers were supplemented with 1 mM fresh PMSF Protease Inhibitor (Thermo), complete EDTA-free protease inhibitor Cocktail Tablets (Roche), 1.25 mM N-ethylmaleimide (Sigma) and 50 µM PR-619 (Calbiochem).
GFP-Trap agarose (Chromotek) pulldowns were subjected to partial on-bead digestion for peptide elution, by addition of 100 µl of elution buffer (50 mM Tris, pH 7.5; 2 M urea; 2 mM DTT; 20 µg/ml trypsin) and incubation at 37 °C for 30 min. To carry out alkylation, 25 mM CAA was added to the samples, which were then left to digest overnight at room temperature. Digestion was halted by introducing 1% TFA. Purification and desalting of peptides were done using SDB-RPS StageTips. This process required preparing two layers of SDB-RPS with 100 µl of wash buffer (0.2% TFA in H2O), onto which the peptides were loaded. After centrifugation for 5 min at 500 × g, peptides were washed using 150 µl wash buffer, eluted with 50 µl elution buffer (80% ACN; 1% ammonia) and vacuum-dried.
Liquid chromatography-mass spectrometry (LC-MS) analysis was conducted using an EASY-nLC-1200 system (Thermo Fisher Scientific), coupled with a timsTOF Pro spectrometer and a nano-electrospray ion source (Bruker Daltonik). […]

p97 = experiment: GFP IP of GFP-VCF1 alanine mutants from U2OS cells; assay type: binding, human; conditions: full-length GFP-VCF1, U2OS
Description: as §3

p97 (His6-p97 WT) = biological target: T1, p97 (His6-p97 WT) (Homo sapiens, UniProt P55072); experiment: SPR: binding to immobilized His6-p97 WT; conditions: N167A mutants; in vitro binding experiments and SPR, up to 300 nM (peptides) or 100 nM (full-length)
T1 construct: Coomassie Blue staining of full-length and truncated His6-p97 proteins purified from E; made in house; host or cells: E. coli BL21(DE3)
T1 sequence (P55072 whole entry, the tested form may be a part): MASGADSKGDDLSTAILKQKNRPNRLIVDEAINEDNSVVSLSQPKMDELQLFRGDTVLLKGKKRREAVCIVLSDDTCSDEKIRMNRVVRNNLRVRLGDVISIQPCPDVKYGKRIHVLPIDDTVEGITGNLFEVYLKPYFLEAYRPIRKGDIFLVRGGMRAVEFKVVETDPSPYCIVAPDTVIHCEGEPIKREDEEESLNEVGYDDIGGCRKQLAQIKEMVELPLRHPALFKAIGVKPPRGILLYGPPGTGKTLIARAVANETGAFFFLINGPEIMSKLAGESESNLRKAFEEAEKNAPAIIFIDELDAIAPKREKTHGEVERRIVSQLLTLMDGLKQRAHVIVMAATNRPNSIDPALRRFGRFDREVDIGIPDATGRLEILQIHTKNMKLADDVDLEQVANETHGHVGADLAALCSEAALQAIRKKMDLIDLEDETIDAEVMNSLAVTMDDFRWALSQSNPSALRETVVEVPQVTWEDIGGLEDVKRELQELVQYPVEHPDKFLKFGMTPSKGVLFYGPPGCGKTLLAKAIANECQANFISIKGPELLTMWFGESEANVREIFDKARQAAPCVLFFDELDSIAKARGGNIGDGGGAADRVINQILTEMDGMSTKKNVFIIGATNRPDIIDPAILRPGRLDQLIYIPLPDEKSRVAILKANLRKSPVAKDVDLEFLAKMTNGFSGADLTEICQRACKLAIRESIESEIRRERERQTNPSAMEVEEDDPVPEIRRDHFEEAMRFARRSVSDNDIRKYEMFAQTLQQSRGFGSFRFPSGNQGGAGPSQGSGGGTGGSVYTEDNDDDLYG
Description: Surface Plasmon Resonance (SPR)
All SPR experiments were performed at 25 °C on a Biacore T200 instrument equipped with CM5 or CM7 sensor chips (Cytiva, Uppsala, Sweden). SPR running buffers and amine-coupling reagents (N-ethyl-N’-(3-dimethlyaminoproply)carbodiimide (EDC), N-hydroxysuccinimide (NHS), and ethanolamine HCl) were purchased from Cytiva. 1x PBS-P (11.9 mM NaH2PO4-Na2HPO4, pH 7.4; 137 mM NaCl; 2.7 mM KCl; 0.005% surfactant P20) supplemented with 0.5 mM TCEP was used as running buffer for the immobilization and the binding experiments with Strep-HA-VCF1 full-length proteins. For the VCF1 C-terminal peptide binding studies, 2% DMSO was additionally included in the running buffer. Eight solvent correction samples ranging from 1.5% DMSO to 2.8% DMSO prepared in either PBS-P, 0.5 mM TCEP or Tris-based buffer were used to correct buffer/DMSO mismatches. The CM5 chip was used for the kinetic analysis of the interactions between p97 proteins and VCF1 full-length proteins or VCF1 C-terminal peptides. p97 was immobilized at different densities on the carboxymethyl dextran sensor chip surface by amine-coupling chemistry. For kinetic analysis, p97 was immobilized at low density (~400 RU) on flow cells 2 (Fc2) and 3 (Fc3), respectively, of a CM5 chip. […] The dissociation rate of the p97-VCF1 complexes was monitored for 400 s. […] Binding experiments were measured in triplicates. […]

5’-CACGCCUAAUCCUGUUGACAA-3’ [NPL4 siRNA]
effect on Ub(G76V)-GFP level (Ub(G76V)-GFP, U2OS cells): increased Ub(G76V)-GFP abundance as expected
reduction in NPL4 abundance [1]: ~ 50%

Cc1cc(OCc2nnc(SC3CCCC3)n2-c2cccnc2)ccc1-c1ccc(S(C)(=O)=O)cc1 [NMS-873]
effect on Ub(G76V)-GFP-NES [2]: strong Ub(G76V)-GFP-NES accumulation

VCF1 N167A: full-length VCF1 with N167A point mutation in VRM
relative ATPase activity (p97 ATPase; 0.025 nM, replicate 1): 1.034
relative ATPase activity (p97 ATPase; 0.025 nM, replicate 2): 0.974
relative ATPase activity (p97 ATPase; 0.025 nM, replicate 3): 1.059
relative ATPase activity (p97 ATPase; 1 nM, replicate 1): 1.009
relative ATPase activity (p97 ATPase; 1 nM, replicate 2): 1.013
relative ATPase activity (p97 ATPase; 1 nM, replicate 3): 1.024
relative ATPase activity (p97 ATPase; 10 nM, replicate 1): 1.046
relative ATPase activity (p97 ATPase; 10 nM, replicate 2): 0.967
relative ATPase activity (p97 ATPase; 10 nM, replicate 3): 0.99
residual binding of N167A mutant to p97 [3]: very weak residual binding to p97
p97 binding of N167A vs WT [4]: strong loss of p97 binding
effect of alanine scan on p97 binding (p97): essential for VCF1 binding to p97
binding to p97 WT (in words) (p97 (His6-p97 WT)): abrogated binding to p97
